Data published in patent US20150037339A1.

B1: BMP9 (ligand, human, UniProt Q9UK05 320-429, looked up)
chain: SAGAGSHCQKTSLRVNFEDIGWDSWIIAPKEYEAYECKGGCFFPLADDVTPTKHAIVQTLVHLKFPTKVGKACCVPTKLSPISVLYKDDMGVPTLKYHYEGMSVAECGCR
B2: BMP2 (ligand, human, UniProt P12643 283-396, looked up)
chain: QAKHKQRKRLKSSCKRHPLYVDFSDVGWNDWIVAPPGYHAFYCHGECPFPLADHLNSTNHAIVQTLVNSVNSKIPKACCVPTELSAISMLYLDENEKVVLKNYQDMVVEGCGCR
B3: BMP4 (ligand, human, UniProt P12644 293-408, looked up)
chain: SPKHHSQRARKKNKNCRRHSLYVDFSDVGWNDWIVAPPGYQAFYCHGDCPFPLADHLNSTNHAIVQTLVNSVNSSIPKACCVPTELSAISMLYLDEYDKVVLKNYQEMVVEGCGCR
B4: BMP10 (ligand, human, UniProt O95393 317-424, looked up)
chain: NAKGNYCKRTPLYIDFKEIGWDSWIIAPPGYEAYECRGVCNYPLAEHLTPTKHAIIQALVHLKNSQKASKACCVPTKLEPISILYLDKGVVTYKFKYEGMAVSECGCR
B5: Activin A, P08476 311-426 (ligand)
chain: GLECDGKVNICCKKQFFVSFKDIGWNDWIIAPSGYHANYCEGECPSHIAGTSGSSLSFHSTVINHYRMRGHSPFANLKSCCVPTKLRPMSMLYYDDGQNIIKKDIQNMIVEECGCS
B6: Activin AB, P08476 311-426; P09529 293-407 (ligand)
chain 1: B5 chain
chain 2: GLECDGRTNLCCRQQFFIDFRLIGWNDWIIAPTSYYGNYCEGSCPAYLAGVPGSASSFHTAVVNQYRMRGLNPGTVNSCCIPTKLSTMSMLYFDDEYNIVKRDVPNMIVEECGCA
B7: Activin AC, P55103 237-352 (ligand, human)
chain 1: B5 chain
chain 2: GIDCQGGSRMCCRQEFFVDFREIGWHDWIIQPEGYAMNFCIGQCPLHIAGMPGIAASFHTAVLNLLKANTAAGTTGGGSCCVPTARRPLSLLYYDRDSNIVKTDIPDMVVEACGCS
B8: Activin B, P09529 293-407 (ligand)
chain: B6 chain 2
B9: H4H10429P (antibody, human IgG4, V domains shown)
VH: QVQLVESGGGVVQPGRSLRLSCVASGFTVSSYGIHWVRQAPGKGLEWVSVIWYDGRNKDYADSVKGRFTISRDNSKNTVYLEMKGLRAEDTALYYCARDKTGDFDSWGQGTLVTVSS
VL: DIQMTQSPSSLSASVGDRVTITCRASQNINSFLSWYQQKPGKAPKFLIYDASSIQSGAPSRFSGSGSGTDFTLTISSLQPEDFATYYCQQSYSSPFTFGQGTKLEIK

Each binder was assayed against BMP receptor types I and II (on W-20-17/BRE-luc cells) (assay: cell-based or functional assay).

EC50 [M]; activation of W-20-17/BRE-luc luciferase reporter cells [M]	Binder
2.6e-10	B1
3.4e-11	B2
6.3e-11	B3
2.5e-09	B4

What follows are binders tested against activin Type II receptors (assay: cell-based or functional assay).

EC50, activation of A204/CAGAx12-Luc cells (Smad 2/3-luciferase reporter) [nM]	Binder
0.099	B5
0.019	B6
4.4	B7
0.047	B8

What follows are binders tested against hBMP7 (human) (UniProt P18075) (assay: SPR (Biacore 4000), captured on anti-human Fc, 200 nM ligand injected, 37 C).
Chain of hBMP7 (human) (P18075 293-431 limits assumed): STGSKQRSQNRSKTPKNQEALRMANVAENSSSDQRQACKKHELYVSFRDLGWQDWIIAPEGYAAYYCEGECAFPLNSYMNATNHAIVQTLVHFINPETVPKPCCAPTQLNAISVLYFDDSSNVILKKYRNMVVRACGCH

binding response (resonance units) for 200 nM ligand [RU]	Binder
9.2	B9
